Literature values in PMC7696831.

Target: SARS-CoV spike protein (Severe acute respiratory syndrome coronavirus) (UniProt P59594)

Sequence of angiotensin-converting enzyme 2 (Q9BYF1 18-708): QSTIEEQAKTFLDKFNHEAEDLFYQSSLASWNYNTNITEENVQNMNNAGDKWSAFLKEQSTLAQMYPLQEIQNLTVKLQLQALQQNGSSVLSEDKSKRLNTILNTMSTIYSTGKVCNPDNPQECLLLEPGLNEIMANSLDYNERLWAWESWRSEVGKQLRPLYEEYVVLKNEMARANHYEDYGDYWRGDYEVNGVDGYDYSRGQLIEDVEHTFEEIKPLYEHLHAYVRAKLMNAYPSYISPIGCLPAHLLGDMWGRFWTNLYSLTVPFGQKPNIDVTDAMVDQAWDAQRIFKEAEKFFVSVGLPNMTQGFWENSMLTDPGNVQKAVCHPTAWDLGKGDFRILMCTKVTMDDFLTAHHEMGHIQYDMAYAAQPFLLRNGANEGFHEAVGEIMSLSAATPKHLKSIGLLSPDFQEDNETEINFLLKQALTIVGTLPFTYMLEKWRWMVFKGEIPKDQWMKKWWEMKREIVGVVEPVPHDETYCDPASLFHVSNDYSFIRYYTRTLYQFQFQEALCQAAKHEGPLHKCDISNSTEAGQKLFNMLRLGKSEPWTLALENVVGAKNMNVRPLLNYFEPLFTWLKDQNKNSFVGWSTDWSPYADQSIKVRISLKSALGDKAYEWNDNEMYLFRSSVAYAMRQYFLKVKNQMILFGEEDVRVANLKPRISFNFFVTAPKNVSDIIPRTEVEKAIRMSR

angiotensin-converting enzyme 2 (from UniProt Q9BYF1)
Kd: 326 nM
